# T1: Lis1^All (D192K, D205K, E300A and K303A) (human, UniProt P43034 1-410, D192K | D205K | E300A | K303A)
# T1 sequence (looked up): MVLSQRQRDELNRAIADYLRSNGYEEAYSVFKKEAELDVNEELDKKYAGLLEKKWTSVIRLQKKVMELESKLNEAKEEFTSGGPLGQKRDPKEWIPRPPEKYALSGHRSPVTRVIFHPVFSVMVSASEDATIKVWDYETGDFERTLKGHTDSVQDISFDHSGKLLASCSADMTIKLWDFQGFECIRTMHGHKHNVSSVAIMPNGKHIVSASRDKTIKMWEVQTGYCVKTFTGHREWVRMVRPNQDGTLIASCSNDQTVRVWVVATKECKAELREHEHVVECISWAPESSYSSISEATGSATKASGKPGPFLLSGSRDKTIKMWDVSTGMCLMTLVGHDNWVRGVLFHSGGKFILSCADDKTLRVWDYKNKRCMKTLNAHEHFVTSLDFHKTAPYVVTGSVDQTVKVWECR
# T2: Lis1^AAA5 (D192K, Y225A and C226D) (human, UniProt P43034 1-410, D192K | Y225A | C226D)
# T2 sequence (looked up): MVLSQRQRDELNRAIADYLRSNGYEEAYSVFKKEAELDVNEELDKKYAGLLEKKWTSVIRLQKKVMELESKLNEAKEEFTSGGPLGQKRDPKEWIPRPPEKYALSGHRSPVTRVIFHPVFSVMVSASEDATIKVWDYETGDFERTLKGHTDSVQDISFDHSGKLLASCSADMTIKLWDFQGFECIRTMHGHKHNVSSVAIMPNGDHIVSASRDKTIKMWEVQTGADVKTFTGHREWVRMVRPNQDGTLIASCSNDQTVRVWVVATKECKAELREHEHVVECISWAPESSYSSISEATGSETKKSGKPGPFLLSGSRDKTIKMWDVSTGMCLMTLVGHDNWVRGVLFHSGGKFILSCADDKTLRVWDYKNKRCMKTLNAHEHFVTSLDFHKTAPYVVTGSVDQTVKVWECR
# T3: Lis1^AAA6 (N203K, D205K and Q222A) (human, UniProt P43034 1-410, N203K | D205K | Q222A)
# T3 sequence (looked up): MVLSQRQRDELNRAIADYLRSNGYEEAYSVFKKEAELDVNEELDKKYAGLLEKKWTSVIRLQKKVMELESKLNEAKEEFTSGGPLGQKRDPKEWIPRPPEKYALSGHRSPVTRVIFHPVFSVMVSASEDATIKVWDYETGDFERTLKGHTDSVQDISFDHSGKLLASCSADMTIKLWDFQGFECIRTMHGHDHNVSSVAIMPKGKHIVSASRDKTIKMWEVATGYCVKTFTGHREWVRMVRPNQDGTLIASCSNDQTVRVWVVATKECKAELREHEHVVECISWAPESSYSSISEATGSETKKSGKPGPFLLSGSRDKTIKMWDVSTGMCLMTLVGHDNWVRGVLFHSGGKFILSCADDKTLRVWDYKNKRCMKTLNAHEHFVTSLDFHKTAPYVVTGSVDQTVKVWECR
# T4: human Lis1 (wild type) (human, UniProt P43034 1-410)
# T4 sequence: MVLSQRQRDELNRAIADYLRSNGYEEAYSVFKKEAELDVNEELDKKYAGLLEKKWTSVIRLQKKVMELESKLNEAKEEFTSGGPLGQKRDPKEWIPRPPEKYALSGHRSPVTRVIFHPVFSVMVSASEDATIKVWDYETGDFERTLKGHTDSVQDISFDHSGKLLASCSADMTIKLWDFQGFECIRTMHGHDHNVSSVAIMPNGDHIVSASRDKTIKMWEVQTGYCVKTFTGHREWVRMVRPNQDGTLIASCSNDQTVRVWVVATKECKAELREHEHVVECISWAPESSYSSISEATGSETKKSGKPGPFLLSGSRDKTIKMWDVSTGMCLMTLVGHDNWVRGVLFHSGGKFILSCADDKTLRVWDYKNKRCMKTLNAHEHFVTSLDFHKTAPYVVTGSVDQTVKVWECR
# Key:
# [1] = target: full-length human cytoplasmic dynein 1 (wild type) (human) (UniProt Q14204); test: mass photometry
# [2] = target: full-length human cytoplasmic dynein 1 (wild type) (human) (UniProt Q14204); test: cryo-EM structure
# [3] = target: T1, Lis1^All (D192K, D205K, E300A and K303A); test: mass photometry
# [4] = target: T2, Lis1^AAA5 (D192K, Y225A and C226D); test: mass photometry
# [5] = target: T3, Lis1^AAA6 (N203K, D205K and Q222A); test: mass photometry
# human Lis1 (wild type) = target: T4, human Lis1 (wild type); test: mass photometry
"percent of 1:1 dynein:Lis1 complex (no Nde1, within 60 min) [1]","percent of complex formation (with Nde1, within a minute) [1]",stoichiometry N (Lis1 dimer per dynein dimer) [1],stoichiometry N (Lis1 dimer per dynein) [1],percent of autoinhibited dynein particles in the Phi^L–Lis1 conformation [2],stoichiometry N (Lis1 dimer per dynein) [2],binding result [3],binding result [4],binding result [5],binding result (human Lis1 (wild type)),Molecule
37%,69%,1,1,57.3%,1,,,,,human Lis1 (wild type) (from UniProt P43034 1-410) (natural protein)
,,,,,,binds,binds,binds,binds,"human Nde1 (N-terminal residues 1–190) (domain or fragment, UniProt Q9NXR1 1-190, looked up) MEDSGKTFSSEEEEANYWKDLAMTYKQRAENTQEELREFQEGSREYEAELETQLQQIETRNRDLLSENNRLRMELETIKEKFEVQHSEGYRQISALEDDLAQTKAIKDQLQKYIRELEQANDDLERAKRATIMSLEDFEQRLNQAIERNAFLESELDEKENLLESVQRLKDEARDLRQELAVQQKQEKPR"
